These results are taken from article PMC7294946.

This assay has as its target PRMT1 (UniProt Q99873). Description: co-IP with Flag antibody, western blot. As to conditions: reference: Flag-RUNX1 wild type; sites T207.

Take “RUNX1 (from UniProt Q01196) Flag-RUNX1 T207A”: the “binding against the reference” value is “weaker”.
